Source: article PMC4446433, “Crystal structure of the Bloom's syndrome helicase indicates a role for the HRDC domain in conformational changes” (Nucleic Acids Research, 2015)

Target: T1, BLM^636–1072, including the RecA domains (human, UniProt P54132 636-1072)
T1 construct: also called RecA core; D1/D2 domains
Assay: BLI; biotinylated HRDC domain immobilised on streptavidin biosensors, RecA domains in solution, in the presence of ADP or ATP; 20-mM HEPES pH 7.5, 200-mM NaCl, 5% glycerol; 60-s windows; Octet RED384; apparent
Conditions: both partners purified

T1 sequence (P54132 636-1072): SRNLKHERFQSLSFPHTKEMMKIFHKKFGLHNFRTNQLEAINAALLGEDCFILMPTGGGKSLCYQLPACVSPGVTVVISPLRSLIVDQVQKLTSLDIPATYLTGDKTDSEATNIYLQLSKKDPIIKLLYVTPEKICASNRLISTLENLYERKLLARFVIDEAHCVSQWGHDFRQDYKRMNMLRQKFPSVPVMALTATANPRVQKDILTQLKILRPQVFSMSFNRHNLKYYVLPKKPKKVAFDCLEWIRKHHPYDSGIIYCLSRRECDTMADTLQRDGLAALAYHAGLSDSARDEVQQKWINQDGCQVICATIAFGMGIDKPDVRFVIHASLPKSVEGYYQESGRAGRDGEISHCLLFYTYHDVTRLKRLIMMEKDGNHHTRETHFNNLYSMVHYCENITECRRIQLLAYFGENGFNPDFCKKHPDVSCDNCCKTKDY

Kd: 30 to 100 µM
B1: BLM^1206–1298, encoding the HRDC domain (domain or fragment, human, UniProt P54132 1206-1298, looked up)
chain: AKVSQREEMVKKCLGELTEVCKSLGKVFGVHYFNIFNTVTLKKLAESLSSDPEVLLQIDGVTEDKLEKYGAEVISVLQKYSEWTSPAEDSSPG
modifications: biotin (on the C-terminal biotin acceptor sequence)
notes: The His10 tag is TEV-cleavable, but no cleavage is described; also called isolated HRDC domain; biotinylated HRDC domain; source: E. coli in TB medium with biotin, purified (Ni-IDA, S75 Superdex)
